The text below walks through data of the RNAGym collection of RNA variant scans (doi:10.7554/elife.80360).

B1: Twister Ribozyme (parent)
chain: AACACUGCCAAUGCCGGUCCCAAGCCCGGAUAAAAGUGGAGGGGGCGG

The variants in the data set derive from B1. The experiment in a line: self-cleavage, relative activity (ratio to wild type); higher = more cleavage; co-transcriptional.
As to A32C G42U, the self-cleavage amounted to 0.266.

For A10G G36U, the self-cleavage came out at 0.823.

Take C19A A35G: the self-cleavage is 0.095.

Consider G29A G42A, for which the self-cleavage turned out to be 0.284.

As to U18A C46G, the self-cleavage amounted to 0.475.

As to U12A U37A, the self-cleavage was determined as 0.918.

In the case of G24C G38A, the self-cleavage stood at 0.106.

As to A34G G36C, the self-cleavage stood at 0.179.

For the variant A2C C21G, the self-cleavage amounted to 0.0366.

Regarding G16A G44C, the self-cleavage was 0.871.

For the variant G13U G44A, the self-cleavage is 0.821.

With A30U A32U, the self-cleavage was 0.879.

Turning to C5U U31A, the self-cleavage was found to be 0.577.

Turning to C5U U31G, the self-cleavage was 0.65.

On to G28A G42U, for which the self-cleavage was found to be 0.261.

With A1C A10G, the self-cleavage amounted to 0.133.

Regarding C3G G39U, the self-cleavage stood at 0.107.

Turning to A4G G43U, the self-cleavage stood at 0.233.

Turning to A10U C20G, the self-cleavage came out at 0.131.

In the case of A10U C20U, the self-cleavage was 0.948.

In the case of G38U G41A, the self-cleavage came out at 0.162.

With A4C A22C, the self-cleavage came to 0.0993.

Consider A22C G36C, for which the self-cleavage was determined as 0.345.

As to C8G A30G, the self-cleavage came out at 0.643.

Consider A1U U12G, for which the self-cleavage was 0.0921.

As to C19A G42A, the self-cleavage stood at 0.135.

In the case of C15G, the self-cleavage stood at 0.101.

Take A11G G48A: the self-cleavage amounted to 0.884.

A40G G42U: the self-cleavage was determined as 0.172.

As for C5G G38C, the self-cleavage was 0.219.

With G17U C19G, the self-cleavage came to 0.111.

With C19A A33C, the self-cleavage turned out to be 0.0946.

Regarding U6A U31A, the self-cleavage was 0.717.

A2U C8U: the self-cleavage was 0.109.

Consider U12A G16C, for which the self-cleavage amounted to 0.688.

Regarding C15A G47A, the self-cleavage worked out at 0.39.

For U12G U37G, the self-cleavage came to 0.653.

As to G38C G41A, the self-cleavage is 0.295.

In the case of G7A A32C, the self-cleavage stood at 0.38.

Consider A4G C9U, for which the self-cleavage was 0.549.

Turning to A4C C46A, the self-cleavage was determined as 0.063.

Regarding A23G G47A, the self-cleavage came out at 0.265.

Regarding G29U G43C, the self-cleavage was 0.19.

C21A U37C: the self-cleavage is 0.115.

Consider G16U A32C, for which the self-cleavage stood at 1.1.

In the case of C9G C46A, the self-cleavage amounted to 0.376.

For the variant A4C A34C, the self-cleavage is 0.0803.

For the variant C19G G42A, the self-cleavage was 0.0847.

Regarding C26G G42C, the self-cleavage is 0.139.

For A4C G41C, the self-cleavage came out at 0.0877.

Take A4U G48C: the self-cleavage turned out to be 0.193.

As to C20U A35U, the self-cleavage turned out to be 1.08.

With C8U C20A, the self-cleavage amounted to 0.0588.

C3A A4C: the self-cleavage was found to be 0.0653.

U18A A30G: the self-cleavage is 0.606.

Turning to C15U G48C, the self-cleavage worked out at 1.07.

Regarding G7C U37A, the self-cleavage is 0.0472.

U12A A32G: the self-cleavage is 1.12.

Turning to C27G A32G, the self-cleavage is 0.0742.

Turning to A4C A11G, the self-cleavage turned out to be 0.193.

As to C19G G41C, the self-cleavage stood at 0.136.

On to A34G G48C, for which the self-cleavage came to 0.791.

Regarding U12C G17C, the self-cleavage was determined as 0.0944.

For A11G A22C, the self-cleavage stood at 0.904.

As to G44A G45U, the self-cleavage turned out to be 1.11.

In the case of A30G U37A, the self-cleavage turned out to be 0.901.

Regarding C25A G28U, the self-cleavage came to 0.146.

Take G28C C46A: the self-cleavage worked out at 0.684.

In the case of U6C C14U, the self-cleavage was found to be 0.473.

Consider G17A A34C, for which the self-cleavage stood at 0.0806.

G16C C27A: the self-cleavage came to 0.684.

Take C3U G44C: the self-cleavage was found to be 0.446.

Consider U31C G39A, for which the self-cleavage worked out at 0.456.

For the variant C20G A30C, the self-cleavage stood at 0.0614.

For G47A G48U, the self-cleavage worked out at 1.47.

For A34U G43U, the self-cleavage turned out to be 0.193.

With C14A C27A, the self-cleavage was found to be 0.31.

Consider G24A, for which the self-cleavage was 0.125.

A11G G13U: the self-cleavage worked out at 0.705.

For the variant U31C G47A, the self-cleavage is 0.926.

Take C19U C26A: the self-cleavage is 0.116.

Consider A34G G45U, for which the self-cleavage is 0.553.

Regarding G16A A34G, the self-cleavage stood at 0.574.

With U6A C19U, the self-cleavage was 0.539.

Turning to A32G G36A, the self-cleavage was found to be 0.618.

Turning to G7U, the self-cleavage amounted to 0.143.

Regarding G17C A23G, the self-cleavage worked out at 0.0841.

In the case of U6G G28U, the self-cleavage came out at 0.0702.

On to A40C G42C, for which the self-cleavage was found to be 0.164.

For A2C C20G, the self-cleavage amounted to 0.0956.

As to C19A G39C, the self-cleavage was 0.126.

As for C46A G47C, the self-cleavage is 0.952.

Take G28A A32C: the self-cleavage amounted to 0.941.

Turning to U12A C27U, the self-cleavage worked out at 0.945.

On to C5U G29C, for which the self-cleavage was 0.454.

In the case of G45C G48U, the self-cleavage is 0.577.

G45C G48C: the self-cleavage came out at 0.89.

C8G C46G: the self-cleavage is 0.344.

In the case of G7U G41U, the self-cleavage came to 0.0899.

On to G13A U31G, for which the self-cleavage is 1.01.

As for A22C U37A, the self-cleavage came out at 0.84.

Consider A34U A40G, for which the self-cleavage was found to be 0.122.

On to G7A G47A, for which the self-cleavage was determined as 0.271.

On to C27G G28C, for which the self-cleavage was 0.216.

Turning to C27G G28U, the self-cleavage is 0.0803.

For the variant C14A G45A, the self-cleavage was found to be 0.801.

Take C8A G45A: the self-cleavage turned out to be 0.203.

C21A G28U: the self-cleavage was 0.129.

As to A10G G38C, the self-cleavage was found to be 0.93.

Regarding C27U A30C, the self-cleavage amounted to 0.701.

As to U6A G36A, the self-cleavage was 0.168.

On to U18A A23G, for which the self-cleavage was determined as 0.0959.

Turning to A10U U31A, the self-cleavage turned out to be 0.694.

As to A10C G28U, the self-cleavage stood at 0.811.

As to G13A A32C, the self-cleavage was 0.689.

Consider A23G C25U, for which the self-cleavage worked out at 0.132.

On to A40U G42U, for which the self-cleavage is 0.15.

With U18C G38A, the self-cleavage was determined as 0.371.

For C14G U18A, the self-cleavage was found to be 0.0727.

Regarding C3A G44C, the self-cleavage is 0.207.

As to C3G C27A, the self-cleavage came to 0.0737.

In the case of A30U G39A, the self-cleavage came out at 0.614.

In the case of C3A A40C, the self-cleavage came to 0.0582.

In the case of C27A G44C, the self-cleavage was 0.298.

With G39U G41U, the self-cleavage was 0.149.

In the case of A34C G44U, the self-cleavage stood at 0.165.

Consider C9G A32C, for which the self-cleavage worked out at 0.195.

For the variant A1C C25A, the self-cleavage came to 0.148.

Take A34G G41C: the self-cleavage was found to be 0.12.

With U18G U31G, the self-cleavage was 0.102.

On to C20G G24U, for which the self-cleavage was found to be 0.0899.

Turning to C25G A32C, the self-cleavage was found to be 0.261.

For the variant G17A C19A, the self-cleavage came to 0.104.

As to A1U G7C, the self-cleavage stood at 0.0703.

Turning to C26G G44A, the self-cleavage was 0.515.

For the variant A23G U37G, the self-cleavage was 0.17.

As to C3A A32U, the self-cleavage came out at 0.278.

With C9U U37G, the self-cleavage came out at 0.419.

Turning to G38C G47U, the self-cleavage was 0.76.

Regarding G17A G28A, the self-cleavage amounted to 0.296.

With C14G C19G, the self-cleavage is 0.078.

As for U6G C26A, the self-cleavage worked out at 0.0837.

Turning to G24C G45U, the self-cleavage is 0.119.

As for C9G U12A, the self-cleavage was 0.968.

For U31G C46G, the self-cleavage amounted to 0.852.

Turning to U31C C46U, the self-cleavage was 0.788.

Consider U31C A33C, for which the self-cleavage was determined as 0.925.

C3U C15A: the self-cleavage worked out at 0.195.

As to A10G C19G, the self-cleavage was found to be 0.677.

With U37A G43U, the self-cleavage was determined as 0.186.

A33C G43A: the self-cleavage turned out to be 0.17.

Take A22U G38A: the self-cleavage was 0.843.

For the variant A33C A34C, the self-cleavage came to 0.383.

Turning to C9G G38U, the self-cleavage amounted to 0.387.

On to A4U A23G, for which the self-cleavage worked out at 0.0721.

Turning to A1G A23U, the self-cleavage is 0.296.

In the case of C15A G39U, the self-cleavage stood at 0.172.

For the variant A34G G43C, the self-cleavage was found to be 0.162.

Turning to C9A G44U, the self-cleavage is 0.544.

Consider C27G A30C, for which the self-cleavage turned out to be 0.105.

Take A2G C3G: the self-cleavage is 0.583.

For U6G C19A, the self-cleavage is 0.0816.

For the variant A22U U37C, the self-cleavage was 0.236.

Take A23C G41U: the self-cleavage was 0.118.

In the case of G36U G48U, the self-cleavage turned out to be 0.454.

With C27U G36A, the self-cleavage came out at 0.583.

Consider C19A A40C, for which the self-cleavage amounted to 0.148.
